Numbering of substitutions follows the chain as printed. Numbers in names are those of the source.
B1: K13/H2 Fab (VL-A51Y/W92I, VH-R96D) (Fab, V domains shown)
VH: EVQLVESGGGLVQPGGSLRLSCAASGFTFSNYAMSWVRQAPGKGLEWVATVTEGGDYNYYLDDVKGRFTISRDNAKNSLYLQMNSLRAEDTAVYYCARDDWPYFFDYWGQGTLVTVSS
VL: DIQMTQSPSSLSASVGDRVTITCRASENIYSNLAWYQQKPGKSPKLLVYGYKNLADGVPSRFSGSGSGTDYTLTISSLQPEDFATYYCQHFITTPRTFGGGTKVEIK
notes: Fab with 8xHis tag
B2: K13/H3 Fab (VL-A51Y/W92I, VH-V51S) (Fab, V domains shown)
VH: B1 VH with V51S, D100R
VL: B1 VL
notes: Fab with 8xHis tag
B3: K17/H3 Fab (VL-A51Y/W92K, VH-V51S) (Fab, V domains shown)
VH: B1 VH with V51S, D100R
VL: B1 VL with I92K
notes: Fab with 8xHis tag
B4: K17/H2 Fab (VL-A51Y/W92K, VH-R96D) (Fab, V domains shown)
VH: B1 VH
VL: B1 VL with I92K
notes: Fab with 8xHis tag
B5: c11C5_C59A (antibody, IgG1, V domains shown)
VH: EVQLVESGGGLVKPGGSLKLSCAASGFTFSNYAMSWVRQTPEKRLEWVATVTEGGDYNYALDDVKGRFTISRDNANDNLYLQMSHLKSEDSARYYCARDRWPYFFDYWGQGTTLTVSS
VL: DIQMTQSPASLSVSVGETVTITCRASENIYSNLAWYQQKQGRSPQLLVYGAKNLADGVPSRFSGSGSGTQYSLNINSLQSEDFGTYYCQHFWTTPRTFGGGTKLEIK
notes: Murine VL and VH, human CL and IgG1 CH1-CH3 domains
B6: c11C5 (chimeric 11C5) (antibody, IgG1, V domains shown)
VH: B5 VH with A60C
VL: B5 VL
notes: as for B5
B7: m11C5 (recombinant murine 11C5) (antibody, mouse IgG2a, V domains shown)
VH: B5 VH with A60C
VL: B5 VL
notes: Murine IgG2a constant domains
B8: m11C5_C59T (antibody, mouse IgG2a, V domains shown)
VH: B5 VH with A60T
VL: B5 VL
notes: Murine IgG2a constant domains
B9: m11C5_C59A (antibody, mouse IgG2a, V domains shown)
VH: B5 VH
VL: B5 VL
notes: Murine IgG2a constant domains
B10: m11C5_C59S (antibody, mouse IgG2a, V domains shown)
VH: B5 VH with A60S
VL: B5 VL
notes: Murine IgG2a constant domains
B11: m11C5_C59Y (antibody, mouse IgG2a, V domains shown)
VH: B5 VH with A60Y
VL: B5 VL
notes: Murine IgG2a constant domains
B12: m11C5_C59V (antibody, mouse IgG2a, V domains shown)
VH: B5 VH with A60V
VL: B5 VL
notes: Murine IgG2a constant domains
B13: h11C5_C59Y (C59Y variant of h11C5) (antibody, human IgG1, V domains shown)
VH: B1 VH with D100R
VL: B1 VL with S43A, Y51A, I92W
notes: Human IgG1/kappa constant domains
B14: h11C5_C59S (antibody, human IgG1, V domains shown)
VH: B1 VH with Y60S, D100R
VL: B1 VL with S43A, Y51A, I92W
notes: as for B13
B15: h11C5_C59T (antibody, human IgG1, V domains shown)
VH: B1 VH with Y60T, D100R
VL: B1 VL with S43A, Y51A, I92W
notes: as for B13
B16: h11C5_C59A (antibody, human IgG1, V domains shown)
VH: B1 VH with Y60A, D100R
VL: B1 VL with S43A, Y51A, I92W
notes: as for B13
B17: h11C5 (humanized 11C5 mAb) (antibody, human IgG1, kappa, N297G, V domains shown)
VH: B1 VH with Y60C, D100R
VL: DIQMTQSPSSLSASVGDRVTITCRASENIYSNLAWYQQKPGKAPKLLVYGAKNLADGVPSRFSGSGSGTDYTLTISSLQPEDFATYYCQHFWTTPRTFGGGTKVEIKR
notes: Human IgG1/kappa

What follows are binders tested against T1, human IL1RAP (hu-IL1RAP) on human cells (human, UniProt Q9NPH3 21-570) (assay: cell-based or functional assay).
T1 sequence: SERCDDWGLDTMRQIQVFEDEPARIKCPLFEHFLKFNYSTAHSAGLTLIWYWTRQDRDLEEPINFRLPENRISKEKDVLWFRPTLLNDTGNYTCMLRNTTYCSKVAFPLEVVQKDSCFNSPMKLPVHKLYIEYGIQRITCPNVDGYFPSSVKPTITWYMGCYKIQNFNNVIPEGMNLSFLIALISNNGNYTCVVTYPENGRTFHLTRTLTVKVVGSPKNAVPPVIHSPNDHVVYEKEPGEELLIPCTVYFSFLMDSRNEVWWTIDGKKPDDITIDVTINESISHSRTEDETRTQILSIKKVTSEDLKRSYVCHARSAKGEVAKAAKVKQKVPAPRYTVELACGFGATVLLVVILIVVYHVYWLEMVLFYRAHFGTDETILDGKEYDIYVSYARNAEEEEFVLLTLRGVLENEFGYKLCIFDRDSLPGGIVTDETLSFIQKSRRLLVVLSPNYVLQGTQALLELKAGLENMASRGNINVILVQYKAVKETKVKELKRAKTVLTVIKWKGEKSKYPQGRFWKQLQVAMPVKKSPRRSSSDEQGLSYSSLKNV

| Binder | HEK-Blue, IL-1β, % inhibition at 100 nM (Fab) [%] | HEK-Blue, IL-1β, IC50 (Fab) [nM] | HEK-Blue, IL-33, % inhibition at 100 nM (Fab) [%] | HEK-Blue, IL-33, IC50 (Fab) [nM] | HEK-Blue, IL-36α, % inhibition at 100 nM (Fab) [%] | HEK-Blue, IL-36α, IC50 (Fab) [nM] |
| --- | --- | --- | --- | --- | --- | --- |
| B1 | 100 | 0.539 | 98 | 2.39 | 99 | 0.548 |
| B2 | 100 | 0.898 | 99 | 2.07 | 98 | 0.462 |
| B3 | 100 | 1.32 | 98 | 3.53 | 100 | 0.8 |
| B4 | 100 | 1.86 | 97 | 4.71 | 100 | 0.93 |

The binders below were run against T2, hu-M-IL1RAP construct, positions S21-T367 (extracellular domain of the membrane form of human IL1RAP) (human, UniProt Q9NPH3 21-367) (assay: BLI (OCTET), mAb captured, 25 C).
T2 construct: Biotinylated when captured on the Biacore chip
T2 sequence: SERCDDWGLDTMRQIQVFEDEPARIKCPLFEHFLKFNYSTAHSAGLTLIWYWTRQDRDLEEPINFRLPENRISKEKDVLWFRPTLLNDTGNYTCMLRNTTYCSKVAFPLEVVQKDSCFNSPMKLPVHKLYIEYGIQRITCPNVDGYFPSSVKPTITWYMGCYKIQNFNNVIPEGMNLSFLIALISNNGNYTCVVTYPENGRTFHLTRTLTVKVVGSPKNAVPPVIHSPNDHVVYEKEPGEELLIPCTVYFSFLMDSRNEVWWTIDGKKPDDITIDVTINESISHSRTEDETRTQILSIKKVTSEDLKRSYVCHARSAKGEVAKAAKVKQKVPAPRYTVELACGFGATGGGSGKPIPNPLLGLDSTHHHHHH
Description: All samples were placed in black 96-well plates and the experiment was performed at 25° C. […] The biosensors were equilibrated in experimental buffer at 25° C. for ten minutes prior to starting the experiment.
The resulting BLI signal from analyte association and dissociation from the immobilized antibody was analyzed using the Octet Data Analysis software (Pall ForteBio). First, a reference subtraction was performed on all recorded traces using the reference well (biosensor that underwent the same steps as experimental wells but no analyte for the Association step), then all the traces were aligned to the beginning of the Association step.

| Binder | Kd [nM] |
| --- | --- |
| B5 | 0.756 |
| B6 | 0.699 |
| B7 | 0.37 |
| B8 | 1.38 |
| B9 | 0.513 |
| B10 | 0.598 |
| B11 | 0.524 |
| B12 | 0.604 |
| B13 | 1.34 |
| B14 | 1.08 |
| B15 | 3.26 |
| B16 | 2.06 |
| B17 | 1.06 |

The binders below were run against T2, hu-M-IL1RAP construct, positions … (assay: SPR, Fab analyte, 37 C).
Description: Surface plasmon resonance (SPR) analysis was used to determine binding affinity for hu-M-IL1RAP of the purified Fabs containing the selected single, double, and triple mutations in either the VL or VH regions using a BIACORE™ 8K instrument. […] For kinetics measurements, 5 nM biotinylated hu-M-IL1RAP was captured at 10 μL/min to achieve ˜50 response units in the second flow cell (FC2). FC1 was kept as a reference. […] The sensorgrams were recorded and subjected to reference and buffer subtraction before data analysis with the BIACORE® 8K Evaluation Software (version 1.1.1.7442). Association rates (kₒₙ) and dissociation rates (koff) were calculated using a simple one-to-one Langmuir binding model. The equilibrium dissociation constant (KD) was calculated as the ratio of koff/kₒₙ.

| Binder | Kd [nM] | koff [s⁻¹] | kon [M⁻¹ s⁻¹] |
| --- | --- | --- | --- |
| B1 | 0.0227 | 0.000115 | 5.08e+06 |
| B2 | 0.0211 | 0.000109 | 5.17e+06 |
| B3 | 0.0315 | 0.00012 | 3.81e+06 |
| B4 | 0.0293 | 0.000121 | 4.15e+06 |

Molecular target: T1, human IL1RAP (hu-IL1RAP) on human cells
Assay: cell-based or functional assay
Remark: another data set of the same source

| Binder | HEK-Blue, IL-1β, IC50 [nM] | HEK-Blue, IL-33, IC50 [nM] | HEK-Blue, IL-33, % inhibition at 100 nM [%] |
| --- | --- | --- | --- |
| B7 | 0.705 | 2.25 | – |
| B13 | 1.03 | 3.75 | – |
| B17 | 3.12 | 24 | 80 |
